In the nanobody polyreactivity screen of Harvey et al. (2022):

Experiment: yeast display, Sf9 membrane polyspecificity reagent, FACS + sequencing; frameworks hold sequencing errors
Method in brief: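 Synthetic nanobody libraries on Saccharomyces cerevisiae BJ5465 were galactose-induced for 36–48 hours, stained 1 hour at 4 °C with 10% biotinylated, detergent-solubilized Sf9 membrane reagent and enriched on streptavidin microbeads. FACS then separated cells into low and high (top ~1%) gates by anti-HA (expression) and streptavidin (reagent binding) fluorescence. Genes were colony-PCR amplified, MiSeq 2 × 250 sequenced and CDR-length filtered. A clone's polyreactivity label is that of its gate of origin.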

Sequence | polyreactivity (PSR sort gate)
QVQLVESGGGLVQAGGSLRLSCAASGRIFAAYAMGWYRQAPGKERELVAAITWRGGSTYYADSVKGRFTISRDNAKNTVYLQMNSLKPEDTAVYYCNARVYYYPGYDYWGQGTQVTVSS | low polyreactivity
QVQLVESGGGLVQAGGSLRLSCAASGRIFADYAMGWYRQAPGKETELVAAISSTSSTNYADSVKGRFTISRDNAKNTVYLQMNSLKPEDTAVYYCAKRIGHLPFRPYDYWGQGTQVTVSS | low polyreactivity
QVQLVESGGGLVQAGGSLRLSCAASGRIFAEYAMGWYIQATGKERELVASISRRGGSTYYADSVKGRFTISRDNAKNTVYLQMNSLKPEDTAVYYCAAVWAYYHTRYSTWGYDYWGQGTQVTVSS | high polyreactivity
QVQLVESGGGLVQAGGSLRLSCAASGRIFAFNAMGGYRQAPGKERELVAAITGRGGRTYYADSVKGRFTISRDHAKNTVYLQMNSLKPEDTAVYYCAAQRYINYDYWGQGTQVTVSS | high polyreactivity
QVQLVESGGGLVQAGGSLRLSCAASGRIFAFYAMGWYRQAPGKERELVAAISWDGGSSYYADSVKGRFTISRDNAKNTVYLQMNSLKPEDTAVYDCNKDLYYAYDYWGQGTQVTVSS | low polyreactivity
QVQLVESGGGLVQAGGSLRLSCAASGRIFAGYAMGWYRQAPGTERELVATITRGGSTNYADSVKRPFTISRDNAKNTVYLQMNSLKPEDTAVYYCNADIRRHGGYAHEYWGQGTKVTVSS | low polyreactivity
QVQLVESGGGLVQAGGSLRLSCAASGRIFAGYTMGWYRPAPGKERELVAAIRSSGRTHYADSVKGRFTISRDNAKNTVYLQMYSLKPEDTAVYYCAARWTYTFAYRFDYWGQGTQVTVSS | high polyreactivity
QVQLVESGGGLVQAGGSLRLSCAASGRIFAHFAMGGYRQAPGKEWELVAAIDSGGSTDYADSVKGRFTISRDNAKNTVYLQMNSLKPEDTAVYYCNAERAYLWWYNFDYWGQGTQVTVSS | low polyreactivity
QVQLVESGGGLVQAGGSLRLSCAASGRIFAKNAMGWYRQAPGKERELVAAISGSGGSTYYADSVKGRFTISRDNAKNTVYLQMNSLKPDDTAVYYCAATRGPNYRNGYWGQGTQVTVSS | high polyreactivity
QVQLVESGGGLVQAGGSLRLSCAASGRIFAKNTMGWYRQAPGKERELVAAITWSSGNTDYADSVKGRFTISRDNAKNTVYLQMNSLKPEDTAVYYCAAYPRWTYWGYVERYYWGQGTQVTVSS | high polyreactivity
QVQLVESGGGLVQAGGSLRLSCAASGRIFANYAMGWYRQAPGKERELVAAISRSGGSTSYADSVKGRFTISRDNAKNTVYLQMNSLKPEDTAVYYCAATRSRYQPVKYGYWGQGTQVTVSS | high polyreactivity
QVQLVESGGGLVQAGGSLRLSCAASGRIFAPNAMGWYRQAPGKEREFVASIRWNGGSTYYADSVKGRFTISRDNAKNTVYLQMNSLKPADTAVYYCAARGWGYRRNYVYAWYDYWGQGTQVTVSS | high polyreactivity
QVQLVESGGGLVQAGGSLRLSCAASGRIFAPNAMGWYRQAPGKERELVAAISFSGDSTSYADSVKGRFTISRDNAKNTVYLQMNSLKPEDTAVYYCATDRRVQYPLGPSYDYDYWGQGTQVTVSS | low polyreactivity
QVQLVESGGGLVQAGGSLRLSCAASGRIFAPYAMGWYRQAPGKERELVAGISIGGSTYYADSVKGRFTISRDNAKNTVYLQMNSLKPEDTAVYYCAALYNFWYSTYYYWGQGTQVTVSS | high polyreactivity
QVQLVESGGGLVQAGGSLRLSCAASGRIFARNAMGWSRQAPGKERELVAAISGGGNTYADSVKGRFTISRDNAKNTVYLQMNSLKPEDTAVYYCARVVHFRGVRYDYWGQGTQVTVSS | high polyreactivity
QVQLVESGGGLVQAGGSLRLSCAASGRIFARNAMGWSRQAPGKERELVAASSSGGGSTYYADSVKGRFTISRDNAKNTVYLRMISLKPEDTAVYYCAARTRITYDWGQGTQVTVSS | low polyreactivity
QVQLVESGGGLVQAGGSLRLSCAASGRIFARNAMGWYRQAPGKERELVATIRVGGGSTYYADSVKGRFTISRDNAKNTVYLQMNSLKPEDTAVYSCAVRQLYSYPGDRRGYYWGQGTQVTVSS | low polyreactivity
QVQLVESGGGLVQAGGSLRLSCAASGRIFARYAMGWYRQAPGKERELVAAITVSGDNTYYADSVKGRFTISRDNAKNTVYLQMNSLKPEDTAVYYCNAYFLVHYRRLRPYDYWGQGTQVTVSS | low polyreactivity
QVQLVESGGGLVQAGGSLRLSCAASGRIFASNAMGWYRQAPGKERELVAAIDQGGGSTYYADSVKGRFTISRDNAKNTVYLQMNSLKPEDTAVYDCAADYISAYPRLYNYWGQGTQVTVSS | low polyreactivity
QVQLVESGGGLVQAGGSLRLSCAASGRIFASNDMGWYRQAPGKEREWVAAITSGGSTYYADSVKGRFTISRDNAKNTVYLQMNSLKPEDTAVYYCAAGSAYYSQRYFAYGYYSWGQGTQVTVSS | low polyreactivity
QVQLVESGGGLVQAGGSLRLSCAASGRIFASYAMGWYRQAPGKERELVAAISGSGASTYYADSVKGRFTISRDNAKNTVYLQMNSLKPEDTAVYYCAAKATSEGDEYWGQGTQVTVSS | high polyreactivity
QVQLVESGGGLVQAGGSLRLSCAASGRIFASYAMGWYRQAPGKERELVAAISWGDDSTYYADSVKGRFTISRDNAKNTVYLQMNSLKPEDTAVYYCAAAFWFGPYRLYYWGQGTQVTVSS | high polyreactivity

Sequence | polyreactivity (PSR sort gate)
QVQLVESGGGLVQAGGSLRLSCAASGRIFATYVMGGYRQAPGKERELVATISSGGSTNYADSVKGRFTISRDNAKNTVYLQMNSLKPEDTAVYYCAVVDGNYWYVKGDYWGQGTQVTVSS | low polyreactivity
QVQLVESGGGLVQAGGSLRLSCAASGRIFAWNAMGWYRQAPGKERELVAAITRGTNTYYADSVKGRFTISRDNAKNTVYLQMNSLKPEDTAVYYCAARLPYNAIGYYYWGQGTQVTVSS | low polyreactivity
QVQLVESGGGLVQAGGSLRLSCAASGRIFAWNAMGWYRQAPGKERELVARIRVSGGRTYYADSVKGRFTISRDNAKNTVYLQMKSLKPDDTAVYYCNAYLRSGSMDYWGQGTQVTVSS | high polyreactivity
QVQLVESGGGLVQAGGSLRLSCAASGRIFAYNALGWYRQAPGKERELVAAISWSGSSTYYADSVKGRFTISRDNAQNRVYLQMNSLTPEDTAVYYCAATPWYYYSTSYAYYDWGQGTQVTVSA | high polyreactivity
QVQLVESGGGLVQAGGSLRLSCAASGRIFAYNTMGWYRQAPGKERELVAVITSGGSTNYADSVKGRFTISRDNAKNTVYLQMNSLKPEDTAVDYCNAPYVARKRFSYNYWGQGTQVTVSS | high polyreactivity
QVQLVESGGGLVQAGGSLRLSCAASGRIFAYYAMGWYRQAPGKERELVAAISGSDGSTYYADSVKGRFTISLDNAKNTVYLQMNSLKPEDTAVYYCAAQDTPGYDYWGQGTQVTVSS | low polyreactivity
QVQLVESGGGLVQAGGSLRLSCAASGRIFAYYAMGWYRQAPGKERELVATINYSGTSTYYADSVKGRFTISRDNAKNTVYLQMNSLKPEDTAVYYCAARYGYAVYYYGTPVRRYYYWGQGTQVTVSS | high polyreactivity
QVQLVESGGGLVQAGGSLRLSCAASGRIFAYYAMGWYRQAPGKERELVATITDSGDDTYYADSVKGRFTISRDNAKNTVYLQMNSLKPEDTAVYYCNAVWRGWYPYWYDYWGQGTQVTVSS | low polyreactivity
QVQLVESGGGLVQAGGSLRLSCAASGRIFAYYAMGWYRQAPGKESELVAAINWSGDGTNYADSVKGRFTISRDNAKNTVYLQMNSLKPVDTAVYYCAARLGHSVNPGGERWDVEYWGQGTQVTVSS | low polyreactivity
QVQLVESGGGLVQAGGSLRLSCAASGRIFAYYAMGWYRQAPGTERELVALISSTGGSTYYADSVKGRFTISRDNAKNTVYLQMNSLKPEDTAVYYCNKQVTGAERFQGHGAYYWGQGTQVTVSS | high polyreactivity
QVQLVESGGGLVQAGGSLRLSCAASGRIFAYYTMGWYRQAPGKERELVASITSGSSTNYADSVKGLFTISRDNAKNTVYLQMNSLKPEDTAVYYCAAPRGSYVRTRYRGYVVQSNYWGQGTQVTVSS | high polyreactivity
QVQLVESGGGLVQAGGSLRLSCAASGRIFDANAMGWYRQAPGKERELVAAINLSGTSTYADSVKGRFTISRDNAKNTVYLQMNSLKPEDTAVYYCNKRSPSTIRFDYWGQGTQVTVSS | high polyreactivity
QVQLVESGGGLVQAGGSLRLSCAASGRIFDDNTMGWSRQAPGKERELVAVITSGGSTNYADSVKGRFTISRDNAKNTVYLQMNSLKQEDTAVYYCATEPGGYRFADRPFQYGYWGQGTQVTVSS | low polyreactivity
QVQLVESGGGLVQAGGSLRLSCAASGRIFDFNAMGWYRQAPGKDRELLAAISRGGGSTYYADSVKGRFTMSRDNAKYTVYLQMNSLKPEDTAVYYCNADYYYPLRSNKYYYWGQGTQVTVSS | high polyreactivity
QVQLVESGGGLVQAGGSLRLSCAASGRIFDFNAMGWYRQAPGKEREVVAAISSGGRTKYADSVKGRFTISRDNAKNTVYLQMNSLKPEDTAVYYCAASGSQPDDYWGQGTQVTVSS | high polyreactivity
QVQLVESGGGLVQAGGSLRLSCAASGRIFDFYGMGWYTQAPGKERELVAAISRRSGSTYYADSVKGRFTISRDNAKNTDYLQMNSLKPEDTAVYYCAAEPSSYRYDYWGQGTQGTVSS | high polyreactivity
QVQLVESGGGLVQAGGSLRLSCAASGRIFDGYAMGWYIQAPGKERELVAAISSRGGRTYYADSVKGRFTISRDNAKNTVYLQMNSLKPEDSAVYYCAADDPYGECDYWGQGTQVTVSS | low polyreactivity
QVQLVESGGGLVQAGGSLRLSCAASGRIFDGYAMGWYRQAPGQERELVAAISSRGGRTYYADSVKGRFTISRDHAKNTVYLQMNSLKPEDTAVYYCAADDPYGEGDYWGQGTQVTVSS | low polyreactivity
QVQLVESGGGLVQAGGSLRLSCAASGRIFDGYDMGWYRQAPGKERELVAAITSVGSTNYADSVKGRFTISRDNAKNTVYLQMNSLKPEDSAVYYCAAVLYVFYDEYGYWEYFSQYDYWGQGTQVTVSS | low polyreactivity
QVQLVESGGGLVQAGGSLRLSCAASGRIFDHNAMGWYRQAPGKERELVAAIDWSGGSTYYADSVKGRFTISRDNAKNTVYLQMNSLKPEDTAVYYCNVYWHTFSWDDYGYWGQGTQVTVSS | low polyreactivity
QVQLVESGGGLVQAGGSLRLSCAASGRIFDINAMGWYIQAPGKERELVAAINYNGSSTYYADSVKGRFTISRDNAKNTVYLQKNSLKPEDTAVYYCATVQVDVYTYDYWGQGTKVTVSS | high polyreactivity
